The text below walks through data of US20230174652A1 (Regeneron, published 2023).

Assay [1] addresses T1, human CD28 (human, UniProt P10747 19-220). Description: cell-based or functional assay.
For assay [2], the target named is T1, human CD28. Description: cell-based or functional assay. The source holds these as a separate data set.
Assay [3] concerns the target T1, human CD28. Description: cell-based or functional assay. This is another data set of the same source.
Assay [4] concerns the target T1, human CD28. Description: cell-based or functional assay. This is another data set of the same source.
The target in another assay is T2, human CD22 (human, UniProt P20273 20-847).
T2 construct: whole, on cells; also called hCD22
Description: flow cytometry on Raji/CD80 and CD86 negative cells.

Description for human CD22: Briefly, human CD4+ T-cells, HEK293/hCD20, HEK293/hCD20/hCD22 and Raji/CD80 and CD86 negative cells were resuspended in staining buffer containing D-PBS+2% FBS. […] A negative control sample was included containing no antibody. Cells were washed once with cold staining buffer and incubated for 30-45 minutes with Allophycocyanin (APC) labeled anti-human secondary antibody. After incubation, cells were washed once with cold D-PBS buffer without FBS and incubated with LIVE/DEAD Fixable Green Dead Cell Stain (Invitrogen) according to manufacturer's instructions to discriminate between live and dead cells. Cells were then fixed in BD Cytofix Buffer according to manufacturer's instructions, washed, re-suspended in staining buffer, and analyzed by flow cytometry on an iQue Screener flow cytometer. For EC₅₀ determinations, geometric mean fluorescence intensity (MFI) values were analyzed using a four parameter logistic equation over a 9-point response curve using GraphPad Prism. Fold binding was calculated using the following equation:

B1: REGN5705 (antibody, V domains shown)
VH: QVQLQESGPGLVKPSETLSLTCTVSGGSISSYYWSWIRQPPGKGLEWIGYIYYSGITHYNPSLKSRVTISVDTSKIQFSLKLSSVTAADTAVYYCARWGVRRDYYYYGMDVWGQGTTVTVSS
VL: not shown
Take B1: in the assay with human CD28 [1], the “EC50 [M], IL-2 release, primary human CD4+ T-cells + Raji/CD80 and CD86 negative, 2 nM REGN1945 (isotype control)” value turned out to be 1.11e-10 M; the “Max RFU, IL-2 release, primary human CD4+ T-cells + HEK293/hCD20, 2 nM REGN1945 (isotype control)” value stood at 2290 RFU; the “Max RFU, IL-2 release, primary human CD4+ T-cells + HEK293/hCD20/hCD22, 2 nM REGN1945 (isotype control)” value came out at 2950 RFU; the “Max RFU, IL-2 release, primary human CD4+ T-cells + Raji/CD80 and CD86 negative, 2 nM REGN1945 (isotype control)” value turned out to be 49500 RFU. Also, in the assay with human CD28 [2], the “EC50 [M], IL-2 release, primary human CD4+ T-cells + HEK293/hCD20, 2 nM REGN2281 (αCD20 x αCD3)” value was 2.23e-09 M; the “EC50 [M], IL-2 release, primary human CD4+ T-cells + Raji/CD80 and CD86 negative, 2 nM REGN2281 (αCD20 x αCD3)” value was 4.51e-11 M; the “Max RFU, IL-2 release, primary human CD4+ T-cells + HEK293/hCD20, 2 nM REGN2281 (αCD20 x αCD3)” value stood at 68900 RFU; the “Max RFU, IL-2 release, primary human CD4+ T-cells + HEK293/hCD20/hCD22, 2 nM REGN2281 (αCD20 x αCD3)” value was 57400 RFU. Besides, the “Max RFU, IL-2 release, primary human CD4+ T-cells + Raji/CD80 and CD86 negative, 2 nM REGN2281 (αCD20 x αCD3)” value with human CD28 [2] was found to be 249000 RFU. In addition, in the assay with human CD28 [3], the “EC50 [M], luciferase activity, reporter T-cells + HEK293/hCD20, 200 pM REGN2281 (αCD20 x αCD3)” value was 2.63e-10 M; the “EC50 [M], luciferase activity, reporter T-cells + HEK293/hCD20/hCD22, 200 pM REGN2281 (αCD20 x αCD3)” value was found to be 7.7e-11 M; the “EC50 [M], luciferase activity, reporter T-cells + Raji/CD80 and CD86 negative, 200 pM REGN2281 (αCD20 x αCD3)” value stood at 4.33e-10 M; the “Max RLU, luciferase activity, reporter T-cells + HEK293/hCD20, 200 pM REGN2281 (αCD20 x αCD3)” value worked out at 409000 RLU. Besides, in the assay with human CD28 [3], the “Max RLU, luciferase activity, reporter T-cells + HEK293/hCD20/hCD22, 200 pM REGN2281 (αCD20 x αCD3)” value was found to be 171000 RLU; the “Max RLU, luciferase activity, reporter T-cells + Raji/CD80 and CD86 negative, 200 pM REGN2281 (αCD20 x αCD3)” value was 569000 RLU. Besides, in the assay with human CD28 [4], the “EC50 [M], luciferase activity, reporter T-cells + HEK293/hCD20, 200 pM REGN1945 (no TCR stimulation)” value amounted to 6.23e-09 M; the “EC50 [M], luciferase activity, reporter T-cells + HEK293/hCD20/hCD22, 200 pM REGN1945 (no TCR stimulation)” value was 8.45e-09 M; the “EC50 [M], luciferase activity, reporter T-cells + Raji/CD80 and CD86 negative, 200 pM REGN1945 (no TCR stimulation)” value amounted to 7.88e-09 M; the “Max RLU, luciferase activity, reporter T-cells + HEK293/hCD20, 200 pM REGN1945 (no TCR stimulation)” value amounted to 25000 RLU. For the same molecule, in the assay with human CD28 [4], the “Max RLU, luciferase activity, reporter T-cells + HEK293/hCD20/hCD22, 200 pM REGN1945 (no TCR stimulation)” value came out at 25100 RLU; the “Max RLU, luciferase activity, reporter T-cells + Raji/CD80 and CD86 negative, 200 pM REGN1945 (no TCR stimulation)” value was determined as 33200 RLU.

B2: REGN5837 (bispecific antibody, human IgG4, V domains shown)
VH 1: B1 VH
VH 2: EVQLVQSGAEVKKPGESLKISCKGSGYNFATYWIAWVRQMPGKGLELMGIIYPGDSETTYNPSFQGQVTISADKSISNAYLQWSSLKASDTAMYYCARVGGYCSGTSCHNWFDPWGLGTLVTVSS
VL: not shown
notes: also called anti-CD22 x anti-CD28 bispecific antibody; CD22xCD28
A word on the EC50: it is the midpoint of the concentration-response curve. Low readings indicate higher potency in that assay, high ones lower potency in that assay. In the case of B2, in the assay with human CD22, a half-maximal response (EC50) required 9.76 nM. This lies in the single-digit nanomolar range.
